Measurements as given in PMC11253611, “The chaperone PrsA2 regulates the secretion, stability, and folding of listeriolysin O during Listeria monocytogenes infection” (mBio, 2024).

Experiments:
[1] = target: recombinant listeriolysin O (without the signal sequence, 25-529) (Listeria monocytogenes 10403S) (UniProt P13128); assay: ITC; pH 6.5, 25°C; PrsA2 (19.0 µM) or mutant titrated into LLO (0.4 µM); 20 mM MES, 100 mM NaCl, 1 mM β-mercaptoethanol, 10% glycerol; independent binding model; n counts PrsA2 monomers per LLO
[2] = target: recombinant listeriolysin O (without the signal sequence, 25-529) (Listeria monocytogenes 10403S) (UniProt P13128); assay: MST; pH 6.5, 25°C; NHS-dye-labelled PrsA2 or mutant (20-150 nM) with serially diluted unlabelled LLO; 20 mM MES, 100 mM NaCl, 1 mM β-mercaptoethanol, 10% glycerol, 0.05% Tween 20; 1:1 model in PALMIST
[3] = target: T1, recombinant listeriolysin O (without the signal sequence, 25-529) (Listeria monocytogenes 10403S, UniProt P13128 25-529); assay: ITC; pH 5.5, 25°C; PrsA2 titrated into LLO; 20 mM MES, 100 mM NaCl, 1 mM β-mercaptoethanol, 10% glycerol; independent binding model; n counts PrsA2 monomers per LLO; details: both partners purified
T1 construct: also called LLO; source: E. coli BL21 (DE3*), purified (nickel-NTA, dialysis)

[4] = target: T1, recombinant listeriolysin O (without …); assay: ITC; pH 5.5, 37°C; PrsA2 titrated into LLO; 20 mM MES, 100 mM NaCl, 1 mM β-mercaptoethanol, 10% glycerol; independent binding model; n counts PrsA2 monomers per LLO; details: both partners purified
[5] = target: T1, recombinant listeriolysin O (without …); assay: ITC; pH 6.5, 37°C; PrsA2 titrated into LLO; 20 mM MES, 100 mM NaCl, 1 mM β-mercaptoethanol, 10% glycerol; independent binding model; n counts PrsA2 monomers per LLO; details: both partners purified
[6] = target: T1, recombinant listeriolysin O (without …); assay: ITC; pH 7.4, 25°C; PrsA2 titrated into LLO; 20 mM MES, 100 mM NaCl, 1 mM β-mercaptoethanol, 10% glycerol; independent binding model; n counts PrsA2 monomers per LLO; details: both partners purified
[7] = target: the molecule itself; assay: cross-linking; 500 ng His-tagged protein with 10 µM BS3 for 1 hour at room temperature in 20 mM HEPES, 200 mM NaCl, pH 6.5; heated at 85°C, SDS-PAGE, anti-His Western blot
[8] = target: T1, recombinant listeriolysin O (without …); assay: ITC; pH 6.5, 25°C; PrsA2 (19.0 µM) or mutant titrated into LLO (0.4 µM); 20 mM MES, 100 mM NaCl, 1 mM β-mercaptoethanol, 10% glycerol; independent binding model; n counts PrsA2 monomers per LLO; details: both partners purified
[9] = target: T1, recombinant listeriolysin O (without …); assay: MST; pH 5.5, 25°C; NHS-dye-labelled PrsA2 (20-150 nM) with serially diluted unlabelled LLO; 20 mM MES, 100 mM NaCl, 1 mM β-mercaptoethanol, 10% glycerol, 0.05% Tween 20; 1:1 model in PALMIST; details: both partners purified
[10] = target: T1, recombinant listeriolysin O (without …); assay: MST; pH 5.5, 37°C; NHS-dye-labelled PrsA2 (20-150 nM) with serially diluted unlabelled LLO; 20 mM MES, 100 mM NaCl, 1 mM β-mercaptoethanol, 10% glycerol, 0.05% Tween 20; 1:1 model in PALMIST; details: both partners purified
[11] = target: T1, recombinant listeriolysin O (without …); assay: MST; pH 6.5, 37°C; NHS-dye-labelled PrsA2 (20-150 nM) with serially diluted unlabelled LLO; 20 mM MES, 100 mM NaCl, 1 mM β-mercaptoethanol, 10% glycerol, 0.05% Tween 20; 1:1 model in PALMIST; details: both partners purified
[12] = target: T1, recombinant listeriolysin O (without …); assay: MST; pH 7.4, 25°C; NHS-dye-labelled PrsA2 (20-150 nM) with serially diluted unlabelled LLO; 20 mM MES, 100 mM NaCl, 1 mM β-mercaptoethanol, 10% glycerol, 0.05% Tween 20; 1:1 model in PALMIST; details: both partners purified
[13] = target: T1, recombinant listeriolysin O (without …); assay: MST; pH 7.4, 37°C; NHS-dye-labelled PrsA2 (20-150 nM) with serially diluted unlabelled LLO; 20 mM MES, 100 mM NaCl, 1 mM β-mercaptoethanol, 10% glycerol, 0.05% Tween 20; 1:1 model in PALMIST; details: both partners purified
[14] = target: T1, recombinant listeriolysin O (without …); assay: ITC; pH 6.5, 25°C; PrsA2 (19.0 µM) or mutant titrated into LLO (0.4 µM); 20 mM MES, 100 mM NaCl, 1 mM β-mercaptoethanol, 10% glycerol; independent binding model; n counts PrsA2 monomers per LLO; details: both partners purified; remark: listed apart in the source
[15] = target: T1, recombinant listeriolysin O (without …); assay: MST; pH 6.5, 25°C; NHS-dye-labelled PrsA2 or mutant (20-150 nM) with serially diluted unlabelled LLO; 20 mM MES, 100 mM NaCl, 1 mM β-mercaptoethanol, 10% glycerol, 0.05% Tween 20; 1:1 model in PALMIST; details: both partners purified
[16] = target: T1, recombinant listeriolysin O (without …); assay: ITC; pH 7.4, 37°C; PrsA2 titrated into LLO at low LLO concentrations to mitigate heats of self-aggregation; 20 mM MES, 100 mM NaCl, 1 mM β-mercaptoethanol, 10% glycerol; independent binding model; n counts PrsA2 monomers per LLO; details: both partners purified
[17] = target: T1, recombinant listeriolysin O (without …); assay: cell-based or functional assay
[18] = target: T1, recombinant listeriolysin O (without …); assay: ITC; pH 6.5, 25°C; PrsA2 (19.0 µM) or mutant titrated into LLO (0.4 µM); 20 mM MES, 100 mM NaCl, 1 mM β-mercaptoethanol, 10% glycerol; independent binding model; n counts PrsA2 monomers per LLO; details: both partners purified; remark: listed apart in the source
[19] = target: T1, recombinant listeriolysin O (without …); assay: MST; pH 6.5, 25°C; NHS-dye-labelled PrsA2 or mutant (20-150 nM) with serially diluted unlabelled LLO; 20 mM MES, 100 mM NaCl, 1 mM β-mercaptoethanol, 10% glycerol, 0.05% Tween 20; 1:1 model in PALMIST; details: both partners purified; remark: listed apart in the source
[20] = target: T1, recombinant listeriolysin O (without …); assay: as above; details: both partners purified; remark: listed apart in the source

Q: What does the source list for “PrsA2 N+C (foldase domain only, lacks the entire PPIase domain) (from UniProt Q8Y557 21-293) (domain or fragment)”?
A: Kd [1]: 357 nM; dH [1]: -16.6 kcal/mol; stoichiometry N [1]: 2.08; Kd [2]: 330 nM

B1: recombinant PrsA2 (wild type, without the signal sequence) (natural protein)
chain: CGGGGDVVKTDSGDVTKDELYDAMKDKYGSEFVQQLTFEKILGDKYKVSDEDVDKKFNEYKSQYGDQFSAVLTQSGLTEKSFKSQLKYNLLVQKATEANTDTSDKTLKKYYETWQPDITVSHILVADENKAKEVEQKLKDGEKFADLAKEYSTDTATKDNGGQLAPFGPGKMDPAFEKAAYALKNKGDISAPVKTQYGYHIIQMDKPATKTTFEKDKKAVKASYLESQLTTENMQKTLKKEYKDANVKVEDKDLKDAFKDFDGSSSSDSDSSK
notes: also called Lm PrsA2; pQE60-prsA2; source: E. coli BL21 (DE3*), purified (nickel-NTA, dialysis)
Q: What does the source list for B1?
A: Kd [3]: 201 nM; dH [3]: -7.93 kcal/mol; stoichiometry N [3]: 1.96; Kd [4]: 330 nM; dH [4]: -5.49 kcal/mol; stoichiometry N [4]: 1.95; Kd [5]: 88.3 nM; dH [5]: -30.9 kcal/mol; stoichiometry N [5]: 1.73; Kd [6]: 46.1 nM; dH [6]: -21.7 kcal/mol; stoichiometry N [6]: 2.11; stoichiometry N [7]: 2; Ka [8]: 2.65e+07 M⁻¹; Kd [8]: 37.8 nM; Kd [9]: 150 nM; Kd [10]: 190 nM; Kd [11]: 28 nM; Kd [12]: 23 nM; Kd [13]: 39 nM; Kd [14]: 37.7 nM; dH [14]: -105 kcal/mol; stoichiometry N [14]: 2.21; Kd [15]: 12 nM; Kd [16]: 67.2 nM; dH [16]: -12.8 kcal/mol; stoichiometry N [16]: 2.01

B2: PrsA2 No dimer mutant/PrsA2^M (V28A/L40A/Y41A/M44A) (natural protein, Listeria monocytogenes, UniProt Q8Y557 21-293, looked up)
chain: CGGGGDVAKTDSGDVTKDEAADAAKDKYGSEFVQQLTFEKILGDKYKVSDEDVDKKFNEYKSQYGDQFSAVLTQSGLTEKSFKSQLKYNLLVQKATEANTDTSDKTLKKYYETWQPDITVSHILVADENKAKEVEQKLKDGEKFADLAKEYSTDTATKDNGGQLAPFGPGKMDPAFEKAAYALKNKGDISAPVKTQYGYHIIQMDKPATKTTFEKDKKAVKASYLESQLTTENMQKTLKKEYKDANVKVEDKDLKDAFKDFDGSSSSDSDSSK
modifications: Red NHS dye (NanoTemper 2nd Generation) on primary amines, in the MST experiments only
notes: Same limits and tag as m1; also called PrsA2 monomer; PrsA2 dimer mutant; source: E. coli BL21 (DE3*), purified (nickel-NTA, dialysis)
Q: Which results are given for B2?
A: LLO hemolytic activity at pH 5.5 and 30°C after 1 hour at pH 7.4 and 37°C with the chaperone mutant at a 30:1 molar ratio (protection assay), against wild-type PrsA2 or PrsA2 N+C [17]: ~2 fold; Kd [18]: 206 nM; dH [18]: -21.3 kcal/mol; stoichiometry N [18]: 2.06; Kd [19]: ~330 nM; Kd [20]: 190 nM

B3: PrsA2 V91T (natural protein, Listeria monocytogenes, UniProt Q8Y557 21-293, looked up)
chain: CGGGGDVVKTDSGDVTKDELYDAMKDKYGSEFVQQLTFEKILGDKYKVSDEDVDKKFNEYKSQYGDQFSATLTQSGLTEKSFKSQLKYNLLVQKATEANTDTSDKTLKKYYETWQPDITVSHILVADENKAKEVEQKLKDGEKFADLAKEYSTDTATKDNGGQLAPFGPGKMDPAFEKAAYALKNKGDISAPVKTQYGYHIIQMDKPATKTTFEKDKKAVKASYLESQLTTENMQKTLKKEYKDANVKVEDKDLKDAFKDFDGSSSSDSDSSK
modifications: Red NHS dye (NanoTemper 2nd Generation) on primary amines, in the MST experiments only
notes: Same limits and tag as m1; also called foldase domain mutant; source: E. coli BL21 (DE3*), purified (nickel-NTA, dialysis)
Q: What does the source list for B3?
A: LLO hemolytic activity at pH 5.5 and 30°C after 1 hour at pH 7.4 and 37°C with the chaperone mutant at a 30:1 molar ratio (protection assay), against wild-type PrsA2 or PrsA2 N+C [17]: ~2 fold; Kd [18]: 9.64 nM; dH [18]: -4.21 kcal/mol; stoichiometry N [18]: 2.11; Kd [20]: 2.8 nM
